Laboratory results taken from patent US20140087995A1 (published 2014).
Numbered stars: 1 amine (or outer) side, 2 acyl side, 3 side chain; on linkers, the order of the positions; unused ones are H or OH. Bridge positions count the residues as written; N and C are the ends. Side chains are listed from the residue outwards. Ends that are not written are not given here. * marks the point of attachment. C20 diacid = O=C(O)CCCCCCCCCCCCCCCCCCC(=O)*; γGlu = O=C(O)[C@H](CCC(=O)[*:2])N[*:1]

T1: rat calcitonin receptor (rat, UniProt P32214 25-516)
T1 construct: whole, on cells; also called rCTR; rat calcitonin (a) receptor
T1 sequence (looked up): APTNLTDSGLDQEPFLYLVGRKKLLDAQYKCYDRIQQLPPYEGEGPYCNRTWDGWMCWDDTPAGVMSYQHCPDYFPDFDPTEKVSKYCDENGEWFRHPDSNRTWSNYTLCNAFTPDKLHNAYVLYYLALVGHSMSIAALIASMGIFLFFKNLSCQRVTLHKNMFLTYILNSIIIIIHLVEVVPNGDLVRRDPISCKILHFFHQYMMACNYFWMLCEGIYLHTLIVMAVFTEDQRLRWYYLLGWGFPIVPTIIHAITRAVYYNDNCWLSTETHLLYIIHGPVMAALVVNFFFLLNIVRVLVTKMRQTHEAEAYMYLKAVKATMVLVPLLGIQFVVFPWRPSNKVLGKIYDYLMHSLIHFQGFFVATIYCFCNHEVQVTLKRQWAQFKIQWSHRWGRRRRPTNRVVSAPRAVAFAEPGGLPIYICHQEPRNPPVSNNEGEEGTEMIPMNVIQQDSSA

T2: human calcitonin receptor (human, UniProt P30988 25-474)
T2 construct: whole, on cells; also called hCTR; hCT
T2 sequence (looked up): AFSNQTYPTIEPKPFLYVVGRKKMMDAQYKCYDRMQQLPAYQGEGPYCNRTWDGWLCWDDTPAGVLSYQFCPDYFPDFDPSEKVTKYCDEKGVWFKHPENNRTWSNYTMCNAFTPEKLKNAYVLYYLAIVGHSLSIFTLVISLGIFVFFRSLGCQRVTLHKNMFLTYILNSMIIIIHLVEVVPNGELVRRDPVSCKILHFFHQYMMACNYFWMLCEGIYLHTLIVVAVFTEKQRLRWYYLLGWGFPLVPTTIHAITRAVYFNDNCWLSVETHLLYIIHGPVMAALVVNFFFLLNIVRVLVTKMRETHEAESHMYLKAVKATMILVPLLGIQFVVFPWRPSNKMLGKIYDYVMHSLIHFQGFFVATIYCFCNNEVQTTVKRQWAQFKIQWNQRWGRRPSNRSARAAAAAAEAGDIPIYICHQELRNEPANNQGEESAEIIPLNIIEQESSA

T3: rat amylin receptor (rat calcitonin receptor + rat RAMP 3) (rat, UniProt P32214 25-516; Q9JJ73 23-147)
T3 construct: whole, on cells; also called rAmylin-R; rat amylin 3(a) receptor
T3 sequence (looked up) 1: T1 sequence (looked up)
T3 sequence (looked up) 2: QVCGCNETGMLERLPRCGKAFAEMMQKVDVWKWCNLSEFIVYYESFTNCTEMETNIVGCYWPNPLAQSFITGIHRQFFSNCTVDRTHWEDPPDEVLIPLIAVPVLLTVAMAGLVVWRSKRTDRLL

B1: N^ε1-[(4S)-4-carboxy-4-[[(4S)-4-carboxy-4-(19-carboxynonadecanoylamino)butanoyl]amino]butanoyl]-[Arg17,Pro21,Pro27,His34]-h-amylin (peptide)
peptide: K([γGlu-γGlu-C20 diacid])CNTATCATQRLANFLRHSSPNFGAIPSSTNVGHNTY-NH2
modifications: disulfide 2-7; N-terminus assumed
SMILES: CC[C@H](C)[C@H](NC(=O)[C@H](C)NC(=O)CNC(=O)[C@H](Cc1ccccc1)NC(=O)[C@H](CC(N)=O)NC(=O)[C@@H]1CCCN1C(=O)[C@H](CO)NC(=O)[C@H](CO)NC(=O)[C@H](Cc1c[nH]cn1)NC(=O)[C@H](CCCNC(=N)N)NC(=O)[C@H](CC(C)C)NC(=O)[C@H](Cc1ccccc1)NC(=O)[C@H](CC(N)=O)NC(=O)[C@H](C)NC(=O)[C@H](CC(C)C)NC(=O)[C@H](CCCNC(=N)N)NC(=O)[C@H](CCC(N)=O)NC(=O)[C@@H](NC(=O)[C@H](C)NC(=O)[C@@H]1CSSC[C@H](NC(=O)[C@@H](N)CCCCNC(=O)CC[C@H](NC(=O)CC[C@H](NC(=O)CCCCCCCCCCCCCCCCCCC(=O)O)C(=O)O)C(=O)O)C(=O)N[C@@H](CC(N)=O)C(=O)N[C@@H]([C@@H](C)O)C(=O)N[C@@H](C)C(=O)N[C@@H]([C@@H](C)O)C(=O)N1)[C@@H](C)O)C(=O)N1CCC[C@H]1C(=O)N[C@@H](CO)C(=O)N[C@@H](CO)C(=O)N[C@H](C(=O)N[C@@H](CC(N)=O)C(=O)N[C@H](C(=O)NCC(=O)N[C@@H](Cc1c[nH]cn1)C(=O)N[C@@H](CC(N)=O)C(=O)N[C@H](C(=O)N[C@@H](Cc1ccc(O)cc1)C(N)=O)[C@@H](C)O)C(C)C)[C@@H](C)O
notes: synthetic analogue of human amylin; also called compound 86
B2: N^ε1-[(4S)-4-carboxy-4-[[(4S)-4-carboxy-4-(19-carboxynonadecanoylamino)butanoyl]amino]butanoyl]-[Glu14,Arg17,Pro21,Pro27,Arg34]-h-amylin (peptide)
peptide: K([γGlu-γGlu-C20 diacid])CNTATCATQRLAEFLRHSSPNFGAIPSSTNVGRNTY-NH2
modifications: disulfide 2-7; N-terminus assumed
SMILES: CC[C@H](C)[C@H](NC(=O)[C@H](C)NC(=O)CNC(=O)[C@H](Cc1ccccc1)NC(=O)[C@H](CC(N)=O)NC(=O)[C@@H]1CCCN1C(=O)[C@H](CO)NC(=O)[C@H](CO)NC(=O)[C@H](Cc1c[nH]cn1)NC(=O)[C@H](CCCNC(=N)N)NC(=O)[C@H](CC(C)C)NC(=O)[C@H](Cc1ccccc1)NC(=O)[C@H](CCC(=O)O)NC(=O)[C@H](C)NC(=O)[C@H](CC(C)C)NC(=O)[C@H](CCCNC(=N)N)NC(=O)[C@H](CCC(N)=O)NC(=O)[C@@H](NC(=O)[C@H](C)NC(=O)[C@@H]1CSSC[C@H](NC(=O)[C@@H](N)CCCCNC(=O)CC[C@H](NC(=O)CC[C@H](NC(=O)CCCCCCCCCCCCCCCCCCC(=O)O)C(=O)O)C(=O)O)C(=O)N[C@@H](CC(N)=O)C(=O)N[C@@H]([C@@H](C)O)C(=O)N[C@@H](C)C(=O)N[C@@H]([C@@H](C)O)C(=O)N1)[C@@H](C)O)C(=O)N1CCC[C@H]1C(=O)N[C@@H](CO)C(=O)N[C@@H](CO)C(=O)N[C@H](C(=O)N[C@@H](CC(N)=O)C(=O)N[C@H](C(=O)NCC(=O)N[C@@H](CCCNC(=N)N)C(=O)N[C@@H](CC(N)=O)C(=O)N[C@H](C(=O)N[C@@H](Cc1ccc(O)cc1)C(N)=O)[C@@H](C)O)C(C)C)[C@@H](C)O
notes: synthetic analogue of human amylin; also called compound 88
B3: N^ε1-[(4S)-4-carboxy-4-[[(4S)-4-carboxy-4-(19-carboxynonadecanoylamino)butanoyl]amino]butanoyl]-[Glu14,Arg17,Pro21,Pro27,Arg35]-h-amylin (peptide)
peptide: K([γGlu-γGlu-C20 diacid])CNTATCATQRLAEFLRHSSPNFGAIPSSTNVGSRTY-NH2
modifications: disulfide 2-7; N-terminus assumed
SMILES: CC[C@H](C)[C@H](NC(=O)[C@H](C)NC(=O)CNC(=O)[C@H](Cc1ccccc1)NC(=O)[C@H](CC(N)=O)NC(=O)[C@@H]1CCCN1C(=O)[C@H](CO)NC(=O)[C@H](CO)NC(=O)[C@H](Cc1c[nH]cn1)NC(=O)[C@H](CCCNC(=N)N)NC(=O)[C@H](CC(C)C)NC(=O)[C@H](Cc1ccccc1)NC(=O)[C@H](CCC(=O)O)NC(=O)[C@H](C)NC(=O)[C@H](CC(C)C)NC(=O)[C@H](CCCNC(=N)N)NC(=O)[C@H](CCC(N)=O)NC(=O)[C@@H](NC(=O)[C@H](C)NC(=O)[C@@H]1CSSC[C@H](NC(=O)[C@@H](N)CCCCNC(=O)CC[C@H](NC(=O)CC[C@H](NC(=O)CCCCCCCCCCCCCCCCCCC(=O)O)C(=O)O)C(=O)O)C(=O)N[C@@H](CC(N)=O)C(=O)N[C@@H]([C@@H](C)O)C(=O)N[C@@H](C)C(=O)N[C@@H]([C@@H](C)O)C(=O)N1)[C@@H](C)O)C(=O)N1CCC[C@H]1C(=O)N[C@@H](CO)C(=O)N[C@@H](CO)C(=O)N[C@H](C(=O)N[C@@H](CC(N)=O)C(=O)N[C@H](C(=O)NCC(=O)N[C@@H](CO)C(=O)N[C@@H](CCCNC(=N)N)C(=O)N[C@H](C(=O)N[C@@H](Cc1ccc(O)cc1)C(N)=O)[C@@H](C)O)C(C)C)[C@@H](C)O
notes: synthetic analogue of human amylin; also called compound 89
B4: N^ε1-[(4S)-4-carboxy-4-[[(4S)-4-carboxy-4-(19-carboxynonadecanoylamino)butanoyl]amino]butanoyl]-[Glu14,Arg17,Pro21,Pro27,His34]-h-amylin (peptide)
peptide: K([γGlu-γGlu-C20 diacid])CNTATCATQRLAEFLRHSSPNFGAIPSSTNVGHNTY-NH2
modifications: disulfide 2-7; N-terminus assumed
SMILES: CC[C@H](C)[C@H](NC(=O)[C@H](C)NC(=O)CNC(=O)[C@H](Cc1ccccc1)NC(=O)[C@H](CC(N)=O)NC(=O)[C@@H]1CCCN1C(=O)[C@H](CO)NC(=O)[C@H](CO)NC(=O)[C@H](Cc1c[nH]cn1)NC(=O)[C@H](CCCNC(=N)N)NC(=O)[C@H](CC(C)C)NC(=O)[C@H](Cc1ccccc1)NC(=O)[C@H](CCC(=O)O)NC(=O)[C@H](C)NC(=O)[C@H](CC(C)C)NC(=O)[C@H](CCCNC(=N)N)NC(=O)[C@H](CCC(N)=O)NC(=O)[C@@H](NC(=O)[C@H](C)NC(=O)[C@@H]1CSSC[C@H](NC(=O)[C@@H](N)CCCCNC(=O)CC[C@H](NC(=O)CC[C@H](NC(=O)CCCCCCCCCCCCCCCCCCC(=O)O)C(=O)O)C(=O)O)C(=O)N[C@@H](CC(N)=O)C(=O)N[C@@H]([C@@H](C)O)C(=O)N[C@@H](C)C(=O)N[C@@H]([C@@H](C)O)C(=O)N1)[C@@H](C)O)C(=O)N1CCC[C@H]1C(=O)N[C@@H](CO)C(=O)N[C@@H](CO)C(=O)N[C@H](C(=O)N[C@@H](CC(N)=O)C(=O)N[C@H](C(=O)NCC(=O)N[C@@H](Cc1c[nH]cn1)C(=O)N[C@@H](CC(N)=O)C(=O)N[C@H](C(=O)N[C@@H](Cc1ccc(O)cc1)C(N)=O)[C@@H](C)O)C(C)C)[C@@H](C)O
notes: synthetic analogue of human amylin; also called compound 87
B5: N^ε21-[(4S)-4-carboxy-4-[[(4S)-4-carboxy-4-(19-carboxynonadecanoylamino)butanoyl]amino]butanoyl]-[Asp14,Arg17,Lys21,Pro27,Asp35]-h-amylin (peptide)
peptide: KCNTATCATQRLADFLRHSSK([γGlu-γGlu-C20 diacid])NFGAIPSSTNVGSDTY-NH2
modifications: disulfide 2-7; N-terminus assumed
SMILES: CC[C@H](C)[C@H](NC(=O)[C@H](C)NC(=O)CNC(=O)[C@H](Cc1ccccc1)NC(=O)[C@H](CC(N)=O)NC(=O)[C@H](CCCCNC(=O)CC[C@H](NC(=O)CC[C@H](NC(=O)CCCCCCCCCCCCCCCCCCC(=O)O)C(=O)O)C(=O)O)NC(=O)[C@H](CO)NC(=O)[C@H](CO)NC(=O)[C@H](Cc1c[nH]cn1)NC(=O)[C@H](CCCNC(=N)N)NC(=O)[C@H](CC(C)C)NC(=O)[C@H](Cc1ccccc1)NC(=O)[C@H](CC(=O)O)NC(=O)[C@H](C)NC(=O)[C@H](CC(C)C)NC(=O)[C@H](CCCNC(=N)N)NC(=O)[C@H](CCC(N)=O)NC(=O)[C@@H](NC(=O)[C@H](C)NC(=O)[C@@H]1CSSC[C@H](NC(=O)[C@@H](N)CCCCN)C(=O)N[C@@H](CC(N)=O)C(=O)N[C@@H]([C@@H](C)O)C(=O)N[C@@H](C)C(=O)N[C@@H]([C@@H](C)O)C(=O)N1)[C@@H](C)O)C(=O)N1CCC[C@H]1C(=O)N[C@@H](CO)C(=O)N[C@@H](CO)C(=O)N[C@H](C(=O)N[C@@H](CC(N)=O)C(=O)N[C@H](C(=O)NCC(=O)N[C@@H](CO)C(=O)N[C@@H](CC(=O)O)C(=O)N[C@H](C(=O)N[C@@H](Cc1ccc(O)cc1)C(N)=O)[C@@H](C)O)C(C)C)[C@@H](C)O
notes: synthetic analogue of human amylin; also called compound 59

Target: T1, rat calcitonin receptor
Assay: ratio of binding IC50s: rat calcitonin receptor over rat amylin receptor (reference)

Row | Binder | Ratio rCT/rAmylin binding
1 | B1 | 126
2 | B2 | 84.9
3 | B3 | 48.8
4 | B4 | 45.6
5 | B5 | 28.5

Target: T2, human calcitonin receptor
Assay: ratio of binding IC50s: human calcitonin receptor over human amylin receptor (reference)
How it was run: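 Scintillation proximity competition binding on cell membranes at 35 ng/μL with SPA beads, in 50 mM Hepes pH 7.4, 1 mM CaCl2, 5 mM MgCl₂, 0.1% OA, 0.02% Tween20. Incubated 120 min at 25° C with shaking. IC₅₀ from one-site competition fit.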

Row | Binder | Ratio hCT/hAmylin binding
6 | B1 | 159
7 | B2 | 46.5
8 | B3 | 28
9 | B4 | 35.6
10 | B5 | 4.3

Target: T1, rat calcitonin receptor
Assay: SPA competition with 125I-calcitonin, membranes of BHK cells with rat calcitonin receptor (Assay VIII)

Row | Binder | IC50 [µM]
11 | B1 | 0.352
12 | B2 | 0.196
13 | B3 | 0.115
14 | B4 | 0.0945
15 | B5 | 0.0188

Target: T3, rat amylin receptor (rat calcitonin …)
Assay: SPA competition with 125I-rat amylin, membranes of BHK cells with rat calcitonin receptor + rat RAMP3 (Assay VI)

Row | Binder | IC50 [µM]
16 | B1 | 0.0028
17 | B2 | 0.00231
18 | B3 | 0.00237
19 | B4 | 0.00207
20 | B5 | 0.000659
